Experimental data reported in patent US20240294651A1 (KYMAB, published 2024).
Changes are numbered by the printed parent chain.

B1: CL-82577 (antibody, human IgG4 S228P, kappa, V domains shown)
VH: QVQLQESGPGLVKPSQTLSLTCTVSGGSISSGGYYWTWIRQLPGKGLEWIGYMSYSGNTFYSPSLKSRFTISGDTSENQFSLKVNSVTSADTAIYYCARDRRIPMLRGIKGYYYGMDVWGQGTTVTVSS
VL: not shown
notes: Tested in human IgG4-PE format
B2: CL-82541 (antibody, human IgG4 S228P, kappa, V domains shown)
VH: QVQLQESGPGLVKPSQTLSLTCTVSGGSISSGRYYWSWIRQLPGKGLEWIGYISYSGNPFYSPSLKSRVTISVDTSENQFSLKLSSVTAADTAVYYCARDRRIPMLRGVKGYYYGMDVWGQGTTVTVSS
VL: not shown
notes: as for B1
B3: CL-82583 (antibody, human IgG4 S228P, kappa)
heavy: not shown
light: DIQMTQSPSSLSASVGDRVTITCRASQGVRDDLGWYQQKPGKAPKRLIYAASSLQSGVPSRFSGSGSGTEFTLTISSLQPEDFATYYCLQHNSYPFTFGPGTKVDIKRTVAAPSVFIFPPSDEQLKSGTASVVCLLNNFYPREAKVQWKVDNALQSGNSQESVTEQDSKDSTYSLSSTLTLSKADYEKHKVYACEVTHQGLSSPVTKSFNRGEC
notes: as for B1
B4: CL-82556 (antibody, human IgG4 S228P, kappa, V domains shown)
VH: QVQLVESGGGVVQPGRSLRLSCAASGFTFYSYGMHWVRQAPGKGLEWVAVIWYGGTNKYYADSVKGRFTISRDNSKNTLYLQMNSLTAEDTAVYYCARGQLERRRGGLNIWGQGTMVTVSS
VL: DIQMTQSPSSLSASVGDRVTITCRASQGVRDDLGWYQQKPGKAPKRLIYAASNLQSGVPSRFSGSGSGTEFTLTIGSLQPEDFATYYCLQHNSYPFTFGPGTKVDIKR
notes: as for B1
B5: CL-82473 (antibody, human IgG4 S228P, kappa, V domains shown)
VH: QVQLVESGGGVVQPGRSLRLSCAASGFTFSSYGMHWVRQAPGKGLEWVTVILYGGSNKYYADSVKGRFTISRDNSKNTLYLQMNSLRAEDTAVYYCARGMLTYYYSSGFDYWGQGTLVTVSS
VL: not shown
notes: as for B1
B6: CL-82517 (antibody, human IgG4 S228P, kappa, V domains shown)
VH: EVQLVESGGGLVKPGGSLRLSCAASGFTFSSYSMNWVRQAPGKGLEWVSSISSSRRYIYYADSVKGRFTISRDNAKNSLYLQMNSLRAEDTAVYYCARAYGQVAPYYYYGMDVWGQGTTVTVSS
VL: AIQLTQSPSSLSASVGDRVTITCRASQGISSALAWYQQKPGKAPKLLIYDASSLESGVPSRFSGSGSGTDFTLTISSLQPEDFATYYCQQFNSYPLTFGGGTKVEIKR
notes: as for B1
B7: CL-82495 (antibody, human IgG4 S228P, kappa, V domains shown)
VH: QVQLVESGGGVVQPGRSLRLSCEASGFTLSSYGMHWVRQAPGKGLEWVAVIWNDGSNKYSADSVKGRFTISRDNSKNTLYLQMNRLRAEDTAVYYCARGGGYYGSGSHYRGYYYYGMDVWGQGTTVTVSS
VL: B4 VL with V29I, D31N, N53S, G76S, F96W, P100Q, D105E
notes: as for B1
B8: CL-82562 (antibody, human IgG4 S228P, kappa, V domains shown)
VH: QVQLVESGGGVVQPGRSLRLSCTASGFTFSNYAMHWVRQAPGKGLEWVAVISYDGSNKYCADSVKGRFTISRDNSKNTLYLQMNSLRAEDTAVYYCARGPLARRHYYYYGMDVWGQGTTVTVSS
VL: B4 VL with V29I, D31N, A50G, N53S, G76S, F96R, P100Q, D105E
notes: as for B1
B9: CL-148712 (antibody, human IgG4 S228P, kappa, V domains shown)
VH: EVQLVESGGDLVQPGGSLRLSCAASGFTFYSYAMNWVRQAPGKGLKWVSGISGSGDITYYADSVKGRFTISRDNSKNTLYLQMHSLRAEDTAVYYCAKGQLERRYYKYYGMDVWGQGTTVTVSS
VL: DIQMTQSPSSLSASVGDRVTITCRANQGIRNDLGWYQQKPGKAPKRLIYGASSLKSGVPSRFSGSGSGTEFTLTISSLQPEDFATYYCLQQNSYPLTFGGGTKVEIKR
B10: CL-82523 (antibody, human IgG4 S228P, kappa, V domains shown)
VH: EVQLVESGGGLVQPGGSLRLSCAASGFTFSNYAMSWVRQAPRKGLEWVSVISGSGGRTNYAGSVKGRFSITRDNSKNTLYLQMNSLRAEDTAVYYCVKGQLERRYYYYYGMDVWGQGITVTVSS
VL: B9 VL with N26S, G50A, K55Q, Q91H
notes: as for B1
B11: CL-82580 (antibody, human IgG4 S228P, kappa, V domains shown)
VH: QVQLVQSGAEVKKPGASVKVSCRASGYTFTNYDINWVRQATGQGLEWMGWMNPNSGNTGYAQKFQGRVTMTRNTSISAAYMELSSLRSEDTAVYYCARGRGYYGSGSRYRGYYYYGMDVWGQGTTVTVSS
VL: not shown
notes: as for B1
B12: CL-82551 (antibody, human IgG4 S228P, kappa, V domains shown)
VH: B11 VH with R23K, N31S, A78T, R108H, M117L
VL: DIQMTQSPSTLSASVGDRVTITCRASQSISSWLAWYQQKPGKAPKVLIYKASSLKSGVPSRFSGSGSGTEFTLTVSSLQPDDFATYYCQQYNSYSWTFGQGTKVEIKR
notes: as for B1
B13: CL-82571 (antibody, human IgG4 S228P, kappa, V domains shown)
VH: EVQLVESGGGLVQPGGSLKLSCAASGFTFSGSAMHWVRQASGKGLEWVGRIRSKANKYATAYAASVKGRFTISRDDSKNTAYVQMKSLKTEDTAVYYCTWELSNYDILTGFYYGMDVWGQGTTVTVSS
VL: B12 VL with S31N, K55E, V75I, Y94F
notes: as for B1
B14: CL-82455 (antibody, human IgG4 S228P, kappa, V domains shown)
VH: QVQLVESGGGVVQPGRSLRLSCAASGFTFNNYGMHWVRQAPGKGLEWVAVIWNDGSNKYYGDSVKGRFTISRDNSKNTLYLQMNSLRAEDTAVYYCARGGGYYGSGKHYRGYYYNGMGVWGQGTPVTVSS
VL: EIVMTQSPATLSVSPGERATLSCRASQSVSSNLAWYQQKPGQAPRLLIYGASTRATGIPARFSGSGSGTEVTLTISSLQSEDFTIYYCQQYNNWPWTFGQGTKVDIKR
B15: CL-82558 Fab fragment (Fab, V domains shown)
VH: B2 VH with R33G, L42V, P59T, Q79K, K83R, S85T, Y96F, M116L
VL: DIVMTQSPLSLPVIPGEPASISCRSSQSLLHRNGYKYLDWYLQKPGQSPQLLIYLGSNRASGVPARFSGSGSGTDFTLKISRVEAEDVGVYYCMQALQTPWTFGQGTKVEIK
notes: Purified Fab fragment

Each binder was assayed against T1, human CXCR4 (cell-expressed) (human, UniProt P61073 1-352) (assay: cell-based or functional assay).

Row | Binder | % Max Inhibition, cAMP HTRF assay, CXCR4 BacMam HEK-293 cells | IC50, cAMP HTRF assay, CXCR4 BacMam HEK-293 cells, 5.5 nM CXCL12
1 | B1 | 92% | 29 nM
2 | B2 | 87% | 74 nM
3 | B3 | 91% | 28 nM
4 | B4 | 94% | 17 nM
5 | B5 | – | > 1000 nM
6 | B6 | 79% | 34 nM
7 | B7 | 96% | 27 nM
8 | B8 | 92% | 99 nM
9 | B9 | 105% | 19 nM
10 | B10 | 87% | 24 nM
11 | B11 | 90% | 46 nM
12 | B12 | 92% | 39 nM
13 | B13 | 88% | 44 nM
14 | B14 | 103% | 91 nM

The binders below were run against T2, terbium-labelled SNAP-CXCR4 on HEK-293 cells (Cisbio C1TT1CXCR4) (human, UniProt P61072 1-352 (Pan troglodytes entry), terbium label on the SNAP tag) (assay: TR-FRET (Tag-lite) competition with AlexaFluor 647-CXCL12 on terbium-labelled SNAP-CXCR4 HEK-293 cells).
T2 construct: Bought assay-ready cells; also called CXCR4 expressing cells; not shown: SNAP tag

Row | Binder | % Max Inhibition | IC50
15 | B1 | 98% | 0.92 nM
16 | B2 | 97% | 1.16 nM
17 | B3 | 98% | 0.72 nM
18 | B4 | 99% | 0.7 nM
19 | B5 | 98% | 1.2 nM
20 | B6 | 96% | 1.06 nM
21 | B7 | 100% | 1.71 nM
22 | B8 | 100% | 0.86 nM
23 | B10 | 101% | 0.55 nM
24 | B11 | 97% | 1.41 nM
25 | B12 | 98% | 1.21 nM
26 | B13 | 96% | 1.47 nM

The binders below were run against T3, biotinylated CXCR4-virus like particle (Integral Molecular, Lot INT-1793B) (human, UniProt P61073 1-352, VLP biotinylated, sites not stated) (assay: SPR (Biacore 8K), biotinylated CXCR4 VLP captured on SA chip, Fab as analyte, 25 C, 1:1 model).
T3 construct: also called hCXCR4 VLP; CXCR4 VLP

Row | Binder | Kd | koff | kon
27 | B15 | 0.67 nM | 0.00155 s⁻¹ | 2.32e+06 M⁻¹ s⁻¹

Target: T1, human CXCR4 (cell-expressed)
Assay: cell-based or functional assay
Remark: another data set of the same source

Row | Binder | % Max Inhibition, beta-arrestin reporter assay, Tango CXCR4-bla U2OS cells | IC50, beta-arrestin reporter assay, Tango CXCR4-bla U2OS cells, 30 nM CXCL12
28 | B1 | 102% | 0.24 nM
29 | B2 | 97.2% | 0.38 nM
30 | B3 | 94% | 0.17 nM
31 | B4 | 101% | 0.14 nM
32 | B5 | 85% | > 120 nM
33 | B6 | 89.6% | 0.84 nM
34 | B7 | 98.9% | 2.08 nM
35 | B8 | 101% | 0.52 nM
36 | B9 | 98.4% | 0.19 nM
37 | B10 | 101% | 0.08 nM
38 | B11 | 100% | 1.15 nM
39 | B12 | 98.2% | 1.56 nM
40 | B13 | 85.6% | 1 nM
41 | B14 | 86.8% | 9.12 nM
